This series deals with the molecule itself. Briefly: cryo-EM structure; amyloid fibrils of the purified construct (formed at 50 μM in PBS, 37°C, shaking); helical reconstruction in RELION, de novo model of the fibril core.

B1: TFG low-complexity domain (residues 237-327) with the G269V mutation conjugated to mCherry (domain or fragment, human, UniProt Q92734 237-327, looked up)
chain: GQIEGQMYQQYQQQAGYGAQQPQAPPQQPQQYVIQYSASYSQQTGPQQPQQFQGYGQQPTSQAPAPAFSGQPQQLPAQPPQQYQASNYPAQ
notes: TRK-fused gene protein (TFG), human, low-complexity domain residues 237-327 with the disease-related (CMT2) mutation G269V; PDB 8TEQ holds only the ordered fibril core (262-290 and 265-290); also called mC-TFG-LCD-G269V; G269V mutant; source: E. coli BL21(DE3) gold, purified (Ni-NTA, size exclusion chromatography), dialyzed into PBS; not shown: mCherry, N-terminal, kept
On to B1, for which the binding result is “binds”.

B2: TFG low-complexity domain (residues 237-327) with the P285L mutation conjugated to mCherry (domain or fragment, human, UniProt Q92734 237-327, looked up)
chain: GQIEGQMYQQYQQQAGYGAQQPQAPPQQPQQYGIQYSASYSQQTGPQQLQQFQGYGQQPTSQAPAPAFSGQPQQLPAQPPQQYQASNYPAQ
notes: TRK-fused gene protein (TFG), human, low-complexity domain residues 237-327 with the disease-related (HMSN-P) mutation P285L; PDB 8TER holds only the ordered fibril core (265-299); also called mC-TFG-LCD-P285L; P285L mutant; source: E. coli BL21(DE3) gold, purified (Ni-NTA, size exclusion chromatography), dialyzed into PBS; not shown: mCherry, N-terminal, kept
On to B2, for which the binding result is “binds”.

For the origin of these results see paper PMC10703350, “Fibril structures of TFG protein mutants validate the identification of TFG as a disease-related amyloid protein by the IMPAcT method” (PNAS Nexus, 2023).
